# Data published in the nanobody polyreactivity screen of Harvey et al. (2022).
# Test: yeast display, Sf9 membrane polyspecificity reagent, FACS + sequencing; frameworks hold sequencing errors
# How it was run: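 Sorting gates, low and high (top ~1%), were placed on anti-HA fluorescence to track expression and on streptavidin fluorescence to track reagent binding. A clone's polyreactivity label is taken from the gate it came out of. The reagent was 10% biotinylated, detergent-solubilized Sf9 membrane, applied for 1 hour at 4 °C to galactose-induced yeast display cells.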
row,Sequence,polyreactivity (PSR sort gate)
1,QVQLVESGGGLVQAGGSLRLSCAASGSIFDWYAMGCYRQAPGKEGELVAAISSGDSTYYADSVKGRFTISRDNAKNTVYLQMNSLKPEDTAVYYCAAVTKLSGIRYNYWGQGTQVTVSS,low polyreactivity
2,QVQLVESGGGLVQAGGSLRLSCAASGLIFYDNMGWYRQAPGKERELVAAISSSGGSRTYAYSVKGRFTISRDNAKNTVYFQMNSLKPEDTEVYYCALDKHYYGRYGVTYDYDYWGQGTQVTVSS,low polyreactivity
3,QVQLVESGGGLVQAGGSLRISCDASGSTFKLYPMGWYRQAPGKEREFVAAISRSGGSTNYADSVNGRFTISRDNAKNTVYLQMNSLKPEDTAVYYCAARYPGNYDYWGQGTQVTVSS,high polyreactivity
4,QVQLVESGGGLVQAGGSLRLSCAASGFIFGINAMGWYRQAPGKERELVATITSGGGTNYADSVKGRFTISRDNAKNTVYLQMNSLKPEDTAVYYCAKAPDTQTSWSRQEGNYWGQGTQVTVSS,low polyreactivity
5,QVQLVESGGGLVQAGGSLRLSCAASGSTFRGYAMGWYRQAPGKERELVAAISWSAGSTYYADSVKGRFTISRDNAKNTVYLQMNRLKPEDTAVYYCAKASVALRYFSYSLGRDYWGQGTQVTVSS,low polyreactivity
6,QVQLVESGGGLVHAGGSLRISCAASGSTFPYYAMGWYRQAPVKERELVAAISRSGGSTYYADSVKGRFTISRDNAKNTVYLQMNRLKPEDTAVYYCNARLARWGSYEYNYWGQGTQVNVSS,low polyreactivity
7,QVQLLDSGGGLVKAGGILRLSCAASGRTFGRYAMGCYRQSPGKERELVATISSRGGNAYYAESVKGRFTISRDNAKNTVYFQMNSLKPEYTGVYYCEAQTYKCYDWRQGTQVTVSS,high polyreactivity
8,QVQLVESGGGLVQAGGSLRLSCAASGRIFWYYAMGWYRQAPGKERELVAAINSGGNTNYADSVKGRFTISRDNAKNTVYLQMNSLKPEDTAVYYCNAGRRYDTYPGDYWGQGSQVTVSS,high polyreactivity
9,QVQLVESGGGLVQAGGSLRLSCAASGRTISYNTMGWYRQARGKERELVARITWGGGSTNYADSVKGSFTISRDNAKNTVYLQMNSLKPEDTAVYYCAREYSSVYWVRHLFYYWGQGTQVTVSS,low polyreactivity
10,QVQLVESGGGLVQAGGSLRLSCAASGSTFAFYDMGWYRQAPGKERELVAAISPSDGDTYYADSVKGRFTISRDNAKNTVYLQMNSLKPEDTAVYYSAAETSHNPEYERGSDYWGQGTQVTVSS,low polyreactivity
11,QVQLVESGGGLVQAGGSLRLSCAASGFTFTGNAMGWYRPAPGKERELVAAISRSGGSTFYADSVKGRFTISRDNAKNTVYLQMNSLKPEDTAVYYCAARRRTLNYLYDYWGQGTQVTVSS,high polyreactivity
12,QVQLVESGGGLVQAGGSLRLSCAASGLTFRRYAMGWYRQAPGKERELVAGISRGGSTYYADSVKGRFTISRDNAKNTVYLQMNRLKPEDTAVYYCAAYNSGTYPVQPVPYDMDYWGQGTQVTVSS,low polyreactivity
13,QVQLVESGGGLVQAGGSLRLSCAASGFSFDFYTMGWYRQAPGKERELVAAITWSGDSTYYADSVKGRFTISRDNAKNTVDLQMNSLKPEDTAVYYCAVARVSQDGYRRRVTTWHDDYWGQGTQVTVSS,low polyreactivity
14,QVQLVESGGGVVQAGGSLRLSCAASGRIFVVYVMGWYRQAPGKEREFVAAITWGGGNTYYADSVKGRFTISRDNAKNTVYLQMNSLKPEDTAVYYCAAADGDDTTFRYDYWGQGTQVTVSS,low polyreactivity
15,QVQLVESGGGLVQAGGSLRLSCAASGIIFRYYAMGWYRQAPGKERELVAAISSSGVSTYYADSVKGRFTISRDNAKNNVYLQMNSLKPEDTAVYYCAAVTTWRMDYWGQGTQVNVSS,high polyreactivity
16,QVQLVESGGGLVQAGGSLRVSCAASGFSFKYYAMGWYRQAPGKERELVAAITKRGGSTYYADSVKGRFTISRDNAKNTVYLQLNSLIPEDTAVYYCAADGRAYERYDYRSDYWGQGSQVTVSS,high polyreactivity
17,QVQLVESGAGLVQAGGSLRLSCADSGSIFYYYAMGWYRQAPGKEREFGAAIRESVGSTYYADSVKGSFTISRDNAKNTVYLQMNSRKPEDTAVYYCAVRRPRRNYNYPYDYWGQGTQVTVSS,low polyreactivity
18,QVQLVESGGGLVQAGGSLRLSCAASGSISGSYAMGWYRQAPGKERELVASITTSGGGTYYADSVKGRFTISRDNAKNTVYLQMNSLKPEDTAVYYCAVEYGYPYAGLDYWGQGTQVTVSS,low polyreactivity
19,QVQLVESGGGLVQAGGSLRLSCAASGRIFKWYAMGWYRQAPGKERELVAAITSGGGSTYYADSVKGRFTISRDNAKNTVYLQMNSLKPEDTAVYYCAVKGYRRWGYDYWGQGTQVTVSS,high polyreactivity
20,QVQLVESGGGLVQAGGSLRLSCAASGSTFLYYAMGWYRQAPGKERELVAAISWSGGSTYYADSVKGRFTISRDNAKNTVYLQMKSLKPEDTAVYYCAASSPWEQSNDQFYYWGQGTQVTVSS,low polyreactivity
21,QVQLVESGGGLVQAGGSLRLSCAASGFTFYLYSMGWYRQAPGKERELVATITSDGGTNYADSVKGRFSISRDNAKNTVYLQMNSLTPEDTAVYYCNAASRRGSRKQAKYDYWGQGTQVTVSA,low polyreactivity
22,QVQLVESGGGLVQAGGSLRLSWAASGITFATKAMGWYRQAPGKERELVAGITSGGSTYYADSVKGRFTISRDNAKNTVYLQMNSLQPEDTAVYYCANRYHYWYGTGYDYWGQGTQVTVSS,low polyreactivity

row,Sequence,polyreactivity (PSR sort gate)
1,QVQLVESGGGLVQAGGSLRLSCAASGRTFQNNAMGWYRQAPGKERELVAAISWRGTSTYYADSVKGRFTISRDNANNTVYLQMNSLKPEDTAVYYCAAYPKYGFEFKYGYWGQGTQVTVSS,high polyreactivity
2,QVQVVESGGGLVQAGGSLRLSCAASGSIFPVYAMGWYRQAPGKERELVAAISSGGSTNYADSVKGRFTISRDNAKNTVYLQRNSLKPEDTAVYYSARRWYYVRHGYWGQGTQVTVSS,high polyreactivity
3,QVQLVESGGALVQAGGSLRLSCAASGFTFLIYAKGWYIQAPGKERELVAAITWRGSGTYYADCVKGRFTISRDNGQNTVYLQMNSLKPEDSAVYYCAARTARRTYDYWGQGTQVTVSS,low polyreactivity
4,QVQLVESGGGLVQAGGSLRLSCAASGSIFKINAMGWYRQAPWKERDFVAAITWSGGSTYYADSVKGRFTISRDNAKHTVYLQMNSLKPEDTAVYYCNARYFNYSTFGGKMGYWGQGTQVTVSS,high polyreactivity
5,QVQLVESGGGLVQAGGSLRLSCAASGRIFVVNAMGWYRQAPGKERELVAAISSSSDSTYYADSVKGRFTISRDNAKNTVYLQMNSLKPEDTAVYYRAADYHYDGYWIYDYWGLGTQVTVSS,high polyreactivity
6,QVQLVESGGGLVQAGGSLRLSCAASGITFYEYAMGLYRKAPGKERELVAAISDRGGSTYYADSVKGRFTISRDNSKNTVYLQLNSLKPEDTAVYYCAGRNTPAQLDYWGQGTQVTVSS,low polyreactivity
7,QVQLVESCGGLVQAGGSLRLSCAASGRTFRDNAMGWYRQAPGKERELVAAIDIDSSTYYADSVEGRFTISRDNAKNTVYLQMNSLKPEDTAVYYCAAESYHDGKGFPDYEYWGQGTQVTVSS,low polyreactivity
8,QVQLEESGGGLVQAGGSLRLSCAASGFTFYIYALGWYRQAPGKERELVAAISSSGTRTYYADSVKGRFTISRDNAKNTVYLQMNSLKPEDTAVYYCAATRYSWHNRVSRRHRYDYWGQGTQVTVSS,high polyreactivity
9,QVQLVESGGGLVHEGGSLRLSCAASGRLFKSYAMGWYRQAPVKERELVAAISRSGGRTYYADSVKGRFTISRDNAKNTVYLQMNSLKPEDTAVYYCAATTFVAPYWGQGTQVTVSS,low polyreactivity
10,QVQLVESGGGLVQAGGSLRLSCAASGFTFRGYAMGWYRPAPGTERELVAAITKRGGSTYYADSVKGRFTISRDNAKNTVYLQMNSLKPEDTAVYYCAKTRRFGRYNAYWYRTYGYDYWGQGSQVTVSS,high polyreactivity
11,QVQLVESGGGLVQAGGSLRLSCAASGSIFGRYAMGWYRQAPGKERELVAAITGSGGTTYYADSVKGRFTISRDNAKNTVYLQMNSLKPEDTAVYYCAADPQVYYSGRPRYDYWGQGTQVTVSS,high polyreactivity
12,QVQLVESGGGLVQAGGSLRLSCAASGITFYYYAMGWYRQAPGKERELVAAISTRDGNTYYADSVKGRFTISRDNAKNTVYLQMNSLKPEDTAVYYCAADYFRYYPYDYWGQGTQVTVSS,low polyreactivity
13,QVQIVESGGGLVQAGGSLRLSFAASGRTFGVYAMGWYRQAPGKERELVAAISATGGSTYYADSVKGRFTISRDNSKNTVYLQMNSLKPEDTAVYYCARGGTTLYWGLGTQVTVSS,high polyreactivity
14,QDHLVESGEGLVQAGGSLRLSCAASGFVFAYYTMGWYRTAPGKERELVAAISRGGGRTYYADSVKGRFTISRDNAKNTVYLQMNSLKPEDTAVYYCAARNGPSIKFAVTGMDYWGQGTQVTVSS,high polyreactivity
15,QVQLVESGGGLVQAGGSLRLSCAASGRTYHAYAMGWYRQAPGKGRELVAAITRTGTTHYADSVKGRFTISRDNAKNTVYLQMTSLKPEDTAVYYCAAQHVRVDAQFVLQGYDYWGQGTQVTVSS,low polyreactivity
16,QVQLVESGGGFVQAGGSLRLSCAASGSIFDYYTMGWYRQAPGKEREFVAGISDSGGSTNYADSVKGRFTISRDNAKNTVYLQMNSLKPEDTAVYYCNAEYVGWFYKYDYWGQGTQVTVSS,high polyreactivity
17,QVQLVESGGGIFQAGGSLRLSCSASGFTLQGYAMVWSRQAPGKERELVAAISWSGGSTYYADSVKGRFTISRDNAKNTVYLQMNSLKPEDTAVYYCAAETYFAEYWGQGTQVTVSS,high polyreactivity
18,QVQLVESGGGLVQAGGSLRLSCAASGRIFGYNAMGWYRQAPGTERELVAAISSSGGGTYYADSVKGRFTISRDNAKNTVYLQMNSLKPEDTAVYYCAAYTRPGRYDYWGQGTQVTVSS,high polyreactivity
19,QVQLAESGGGLVQAGGSLRLSCAPSGSTFEINAMGWYRQAPGKETELVAAISRGGSTNYADSVKGRFSISRDNAKNTVYLQMNSLKPEDSAVYDCARDPRFRYYRVSYANDQEFEYSGQGTQVTVSS,high polyreactivity
20,QVQLVESGGGLVQAGGSLRLSCAASGFIFTGNAMGWYRQAPGKERELVAAISKRGGRTYYADSVKGRFTISRDNAKNTVYLQMNSLKPEDTAVYYCAAVGYAYTYAEYYYWGQGTQVTVSS,high polyreactivity
21,QVQLVESGGGLVQAGGSLRLSCAASGFIFSNNAMGWYRQAPGKERELVASISSSSRTYYADSVKGRFTISRDNAKNTVYLQMNSLKPEDTAVYYCAAVFRWWGTRVDYWGQGTQVTVSS,high polyreactivity
